To fix the notation:
B5: 10B-t chimera (catalytic module of T. fusca Xyn10B attached directly to dockerin S of Cel48S from Clostridium thermocellum) (enzyme)
chain: MASHHHHHHGPVHDHHPAPHSNAKSERLRWAAPDGFYIGSAVAGGGHHLEQDYPDPFTHDGKYRSILAQQFSSVSPENQMKWEYIHPEPDRYDFAMADKIVDFAERNDQKVRGHTLLWHSQNPEWLEEGDYSPEELREILRDHITTVVGRYAGRIHQWDVANEIFDEQGNLRTQENIWIRELGPGIIADAFRWAHEADPNAELFFNDYNVEGINPKSDAYYELIQELLDDGVPVHGFSVQGHLSTRYGFPGDLEQNLRRFDELGLATAITELDVRMDLPASGKPTPKQLEQQADYYQQALEACLAVEGCDSFTIWGFTDKYSWVPVFFPDEGAATIMTEKYERKPAFFALQQTLREARCADSPKPGPGKPKPGKGPKHDHCTSTYKVPGTPSTKLYGDVNDDGKVNSTDAVALKRYVLRSGISINTDNADLNEDGRVNSTDLGILKRYILKEIDTLPYKN
notes: Recombinant chimera expressed in E. coli, purified on a Ni column (His-tag); also called variant Xyn10B

In assay [1] the target is T1, f-5A chimera (catalytic module of T. fusca family-5 endoglucanase Cel5A fused to a dockerin from Ruminococcus …).
T1 construct: Recombinant chimera expressed in E. coli; all enzyme constructs were designed to contain a His-tag; also called variant Cel5A
T1 chain: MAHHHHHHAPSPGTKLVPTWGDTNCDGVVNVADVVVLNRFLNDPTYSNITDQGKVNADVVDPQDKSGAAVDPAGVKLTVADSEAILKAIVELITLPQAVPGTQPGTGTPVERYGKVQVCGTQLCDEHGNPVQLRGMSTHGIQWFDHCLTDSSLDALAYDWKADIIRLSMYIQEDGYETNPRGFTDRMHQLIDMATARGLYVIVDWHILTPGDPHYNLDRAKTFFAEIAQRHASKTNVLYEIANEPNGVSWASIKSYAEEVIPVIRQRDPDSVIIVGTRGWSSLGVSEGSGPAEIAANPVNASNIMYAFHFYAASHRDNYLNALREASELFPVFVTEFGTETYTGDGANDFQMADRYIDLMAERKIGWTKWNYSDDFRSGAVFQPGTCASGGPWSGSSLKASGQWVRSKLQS
The experiment in a line: affinity-based ELISA; complex formation also by non-denaturing PAGE. On the technique in general: An ELISA detects its analyte on a solid surface through an enzyme-linked reagent.

Assay [2] deals with T2, 11A-a chimera (catalytic module of T. fusca Xyn11A attached directly to dockerin B from Acetivibrio …).
T2 construct: Recombinant chimera expressed in E. coli, purified on a Ni column (His-tag)
The assay is described as above.

In assay [3] the target is B5. Described as above.
For assay [4], the target named is T3, 11A-XBM-a chimera (catalytic module of T. fusca Xyn11A together with its adjacent XBM attached to dockerin B …).
T3 construct: Recombinant chimera expressed in E. coli, purified on a Ni column (His-tag); also called variant Xyn11A
Described as above.

In assay [5] the target is T4, b-48A chimera (catalytic module of T. fusca exoglucanase Cel48A ligated with a dockerin from the Bacteroides …).
T4 construct: Recombinant chimera; all enzyme constructs were designed to contain a His-tag; also called variant Cel48A
T4 chain: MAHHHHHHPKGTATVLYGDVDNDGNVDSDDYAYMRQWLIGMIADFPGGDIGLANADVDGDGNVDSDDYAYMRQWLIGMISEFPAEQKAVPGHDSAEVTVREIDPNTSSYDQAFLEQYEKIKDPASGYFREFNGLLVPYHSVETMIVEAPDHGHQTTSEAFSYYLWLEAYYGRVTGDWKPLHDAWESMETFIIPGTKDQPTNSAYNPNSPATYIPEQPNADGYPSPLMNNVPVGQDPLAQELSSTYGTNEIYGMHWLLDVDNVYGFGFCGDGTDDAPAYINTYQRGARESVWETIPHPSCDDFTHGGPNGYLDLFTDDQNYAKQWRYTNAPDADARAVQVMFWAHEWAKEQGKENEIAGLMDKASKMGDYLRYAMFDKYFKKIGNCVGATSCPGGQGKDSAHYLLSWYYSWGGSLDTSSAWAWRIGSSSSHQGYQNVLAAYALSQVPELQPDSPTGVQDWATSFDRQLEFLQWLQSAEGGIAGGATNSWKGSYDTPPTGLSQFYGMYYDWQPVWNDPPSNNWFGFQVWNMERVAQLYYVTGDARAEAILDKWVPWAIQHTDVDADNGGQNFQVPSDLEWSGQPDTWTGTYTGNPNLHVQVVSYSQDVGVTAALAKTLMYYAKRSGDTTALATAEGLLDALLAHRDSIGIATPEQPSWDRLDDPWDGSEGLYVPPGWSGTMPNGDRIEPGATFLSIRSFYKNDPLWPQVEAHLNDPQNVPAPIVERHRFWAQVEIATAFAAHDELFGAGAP
As to the kind of experiment: affinity-based ELISA.

In assay [6] the target is T2, 11A-a chimera (catalytic module of T. …). As to the kind of experiment: affinity-based ELISA.
Assay [7] deals with T3, 11A-XBM-a chimera (catalytic module of …). The experiment in a line: affinity-based ELISA.
The target of assay [8] is T5, Scaf-T single-cohesin scaffoldin (CBM with C. thermocellum cohesin) (Acetivibrio thermocellus (strain ATCC …, UniProt Q06851 361-706)).
T5 construct: Individual single-cohesin scaffoldin; also called pScaf.T
T5 sequence: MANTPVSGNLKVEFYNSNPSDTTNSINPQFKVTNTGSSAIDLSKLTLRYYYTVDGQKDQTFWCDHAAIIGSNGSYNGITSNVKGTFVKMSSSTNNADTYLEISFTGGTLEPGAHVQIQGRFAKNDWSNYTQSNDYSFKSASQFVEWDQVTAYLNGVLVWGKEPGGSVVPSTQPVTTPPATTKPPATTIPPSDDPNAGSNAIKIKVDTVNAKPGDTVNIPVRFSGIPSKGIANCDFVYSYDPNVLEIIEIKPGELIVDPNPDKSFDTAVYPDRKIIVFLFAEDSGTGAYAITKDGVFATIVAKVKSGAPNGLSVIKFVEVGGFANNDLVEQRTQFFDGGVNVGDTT
As to the kind of experiment: affinity-based ELISA.

The target in assay [9] is T4, b-48A chimera (catalytic module of T. …). As to the kind of experiment: affinity-based ELISA; complex formation also by non-denaturing PAGE.

Experimental findings from patent US20120301930A1 (YEDA RESEARCH AND DEVELOPMENT, published 2012) are described below.

B1: Scaf-ATF chimeric scaffoldin (cohesins A, T and F with the cellulose-binding CBM) (other)
chain: MDLQVDIGSTSGKAGSVVSVPITFTNVPKSGIYALSFRTNFDPQKVTVASIDAGSLIENASDFTTYYNNENGFASMTFEAPVDRARIIDSDGVFATINFKVSDSAKVGELYNITTNSAYTSFYYSGTDEIKNVVYNDGKIEVIASVPTNTPTNTPANTPVSGNLKVEFYNSNPSDTTNSINPQFKVTNTGSSAIDLSKLTLRYYYTVDGQKDQTFWCDHAAIIGSNGSYNGITSNVKGTFVKMSSSTNNADTYLEISFTGGTLEPGAHVQIQGRFAKNDWSNYTQSNDYSFKSASQFVEWDQVTAYLNGVLVWGKEPGGSVVPSTQPVTTPPATTKPPATTIPPSDDPNAIKIKVDTVNAKPGDTVNIPVRFSGIPSKGIANCDFVYSYDPNVLEIIEIKPGELIVDPNPDKSFDTAVYPDRKIIVFLFAEDSGTGAYAITKDGVFATIVAKVKSGAPNGLSVIKFVEVGGFANNDLVEQRTQFFDGGVNVGDIGSAGGLSAVQPNVSLGEVLDVSANRTAADGTVEWLIPTVTAAPGQTVTMPVVVKSSSLAVAGAQFKIQAATGVSYSSKTDGDAYGSGIVYNNSKYAFGQGAGRGIVAADDSVVLTLAYTVPADCAEGTYDVKWSDAFVSDTDGQNITSKVTLTDGAIIVHHHHHH
Take B1: the binding result in assay [1], in [2], in [3] and in assay [4] was “binds” each time.

B2: Scaf AT chimeric scaffoldin (A. cellulolyticus cohesin 3, cellulose-binding CBM, cohesin 3 from the C. thermocellum CipA scaffoldin) (other)
chain: MDLQVDIGSTSGKAGSVVSVPITFTNVPKSGIYALSFRTNFDPQKVTVASIDAGSLIENASDFTTYYNNENGFASMTFEAPVDRARIIDSDGVFATINFKVSDSAKVGELYNITTNSAYTSFYYSGTDEIKNVVYNDGKIEVIASVPTNTPTNTPANTPVSGNLKVEFYNSNPSDTTNSINPQFKVTNTGSSAIDLSKLTLRYYYTVDGQKDQTFWCDHAAIIGSNGSYNGITSNVKGTFVKMSSSTNNADTYLEISFTGGTLEPGAHVQIQGRFAKNDWSNYTQSNDYSFKSASQFVEWDQVTAYLNGVLVWGKEPGGSVVPSTQPVTTPPATTKPPATTIPPSDDPNAIKIKVDTVNAKPGDTVNIPVRFSGIPSKGIANCDFVYSYDPNVLEIIEIKPGELIVDPNPDKSFDTAVYPDRKIIVFLFAEDSGTGAYAITKDGVFATIVAKVKSGAPNGLSVIKFVEVGGFANNDLVEQRTQFFDGGVNVGDIHHHHHH
For the molecule B2, the binding result in assay [2], in assay [3] and in [4] was “binds” each time.

B3: Scaf-B single-cohesin scaffoldin (CBM with B. cellulosolvens cohesin) (other)
chain: MANTPVSGNLKVEFYNSNPSDTTNSINPQFKVTNTGSSAIDLSKLTLRYYYTVDGQKDQTFWCDHAAIIGSNGSYNGITSNVKGTFVKMSSSTNNADTYLEISFTGGTLEPGAHVQIQGRFAKNDWSNYTQSNDYSFKSASQFVEWDQVTAYLNGVLVWGKEPGGSVVPSTQPVTTPPATTKPPATTIPPSDDPNAGSGKSSPGNKMKIQIGDVKANQGDTVIVPITFNEVPVMGVNNCNFTLAYDKNIMEFISADAGDIVTLPMANYSYNMPSDGLVKFLYNDQAQGAMSIKEDGTFANVKFKIKQSAAFGKYSVGIKAIGSISALSNSKLIPIESIFKDGSITVTN
notes: Individual single-cohesin scaffoldin
As to B3, the binding result in [5] is listed as “binds”.

B4: Scaf-A single-cohesin scaffoldin (CBM with A. cellulolyticus cohesin) (other)
chain: MANTPVSGNLKVEFYNSNPSDTTNSINPQFKVTNTGSSAIDLSKLTLRYYYTVDGQKDQTFWCDHAAIIGSNGSYNGITSNVKGTFVKMSSSTNNADTYLEISFTGGTLEPGAHVQIQGRFAKNDWSNYTQSNDYSFKSASQFVEWDQVTAYLNGVLVWGKEPGGSVVPSTQPVTTPPATTKPPATTIPPSDDPNAGSDLQVDIGSTSGKAGSVVSVPITFTNVPKSGIYALSFRTNFDPQKVTVASIDAGSLIENASDFTTYYNNENGFASMTFEAPVDRARIIDSDGVFATINFKVSDSAKVGELYNITTNSAYTSFYYSGTDEIKNVVYNDGKIEVIAS
notes: Individual single-cohesin scaffoldin; also called pScaf-A
As for B4, the binding result in assay [6] and in [7] was “binds” each time.

For B5, the binding result in assay [8] is “binds”.

B6: Scaf-BF chimeric scaffoldin (cohesin from B. cellulosolvens ScaB, CBM3a from C. thermocellum, cohesin 1 from R. flavefaciens scaffoldin B) (other)
chain: MAGKSSPGNKMKIQIGDVKANQGDTVIVPITFNEVPVMGVNNCNFTLAYDKNIMEFISADAGDIVTLPMANYSYNMPSDGLVKFLYNDQAQGAMSIKEDGTFANVKFKIKQSAAFGKYSVGIKAIGSISALSNSKLIPIESIFKDGSITVTKVPTNTPTNTPANTPVSGNLKVEFYNSNPSDTTNSINPQFKVTNTGSSAIDLSKLTLRYYYTVDGQKDQTFWCDHAAIIGSNGSYNGITSNVKGTFVKMSSSTNNADTYLEISFTGGTLEPGAHVQIQGRFAKNDWSNYTQSNDYSFKSASQFVEWDQVTAYLNGVLVWGKEPGGSVVPSTQPVTTPPATTKPPATTIPPSEDPAGGLSAVQPNVSLGEVLDVSANRTAADGTVEWLIPTVTAAPGQTVTMPVVVKSSSLAVAGAQFKIQAATGVSYSSKTDGDAYGSGIVYNNSKYAFGQGAGRGIVAADDSVVLTLAYTVPADCAEGTYDVKWSDAFVSDTDGQNITSKVTLTDGAIIVHHHHHH
B6: the binding result in assay [1] and in assay [9] was “binds” each time.
